This is an account of results in PMC3770571.

The target in assay [1] is endogenous LANA of KSHV infected PEL cells (KSHV (HHV8) (endogenous in BCBL1, JSC1, BC3)) (UniProt Q9QR71). Put plainly: co-IP; lysate of 30 million BCBL1 cells treated with 2 U micrococcal nuclease (mononucleosomes), anti-LANA IP.
For assay [2] the target is unchanged. Put plainly: co-IP.

Chain of UniProt Q9QR71 (Q9QR71 whole entry): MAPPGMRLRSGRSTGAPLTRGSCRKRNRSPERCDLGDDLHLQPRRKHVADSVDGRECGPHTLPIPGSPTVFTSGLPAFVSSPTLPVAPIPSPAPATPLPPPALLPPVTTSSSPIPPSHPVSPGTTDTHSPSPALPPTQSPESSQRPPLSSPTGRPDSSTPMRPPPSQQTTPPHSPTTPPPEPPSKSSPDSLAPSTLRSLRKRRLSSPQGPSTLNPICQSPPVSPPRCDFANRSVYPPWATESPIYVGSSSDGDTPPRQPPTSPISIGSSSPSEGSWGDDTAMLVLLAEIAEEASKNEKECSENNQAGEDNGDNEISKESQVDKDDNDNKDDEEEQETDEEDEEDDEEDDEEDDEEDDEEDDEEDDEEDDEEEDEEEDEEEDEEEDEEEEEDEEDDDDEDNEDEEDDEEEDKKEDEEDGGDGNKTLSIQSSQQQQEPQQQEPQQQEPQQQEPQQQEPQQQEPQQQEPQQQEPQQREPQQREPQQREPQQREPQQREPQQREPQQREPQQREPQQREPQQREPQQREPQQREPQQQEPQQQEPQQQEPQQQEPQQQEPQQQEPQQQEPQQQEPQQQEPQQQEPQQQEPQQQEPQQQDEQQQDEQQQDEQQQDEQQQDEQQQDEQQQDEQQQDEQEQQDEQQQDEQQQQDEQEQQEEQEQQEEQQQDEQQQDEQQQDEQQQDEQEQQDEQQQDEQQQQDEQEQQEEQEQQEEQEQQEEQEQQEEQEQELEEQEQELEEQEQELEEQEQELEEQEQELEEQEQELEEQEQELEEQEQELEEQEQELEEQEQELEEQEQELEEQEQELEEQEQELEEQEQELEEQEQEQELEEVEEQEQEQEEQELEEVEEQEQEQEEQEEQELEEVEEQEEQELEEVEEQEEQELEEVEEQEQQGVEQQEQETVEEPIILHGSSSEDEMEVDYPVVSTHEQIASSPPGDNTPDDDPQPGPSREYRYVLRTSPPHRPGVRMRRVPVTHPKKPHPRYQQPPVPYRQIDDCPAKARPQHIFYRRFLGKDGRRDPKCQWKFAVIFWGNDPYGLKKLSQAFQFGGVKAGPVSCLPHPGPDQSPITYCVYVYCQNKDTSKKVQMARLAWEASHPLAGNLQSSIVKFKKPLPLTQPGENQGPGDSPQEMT

For “endogenous histone H1 of human cells (from UniProt P16403 1-213) (natural protein)”, the relative density of the co-precipitated band (input set at 10%) in assay [1] stood at 10%; in assay [2] it was 30%.
